The text below walks through data of patent publication US20210403538A1.

A value given as a limit tells only on which side of the number the result lay.

Assay [1] deals with MARV GP [change] (Lake Victoria marburgvirus) (UniProt Q1PD50).
Assay [2] concerns the target SUDV GP [change] (Sudan ebolavirus) (UniProt Q7T9D9).
The target in assay [3] is BDBV GP [change] (Bundibugyo ebolavirus (BDBV), strain 200706291 Uganda). The assay is described as follows: ELISA, coated recombinant GP ΔTM. In general terms: In an ELISA, binding on a coated surface is turned into a signal by an enzyme label.
Assay [4] has as its target EBOV GP [change] (Zaire ebolavirus (EBOV), strain Makona). The assay is described as follows: ELISA, coated recombinant GP ΔTM.
The target of assay [5] is SUDV GP [change] (Sudan ebolavirus (SUDV), strain Gulu) (UniProt Q7T9D9). In words: ELISA.

Usually EC50 stands for the concentration at which the effect is half-maximal. For 4G7 (antibody), the EC50 in assay [1] was more than 10 µg/mL; in assay [2] it was more than 10 µg/mL; in assay [3], more than 10 µg/mL; in assay [4], 0.018 µg/mL.
Regarding KZ52 (antibody), the EC50 in assay [1] is more than 10 µg/mL; in assay [2], more than 10 µg/mL; in assay [3] it was more than 10 µg/mL; in assay [4], 0.014 µg/mL.
Consider rEBOV-520 LALA, for which the EC50 in assay [5] amounted to 0.377 µg/mL.
